Data on one substance can be found in patent US12404328.

For this experiment, the target named is CD19 expressed on the surface of KILR Raji cells (UniProt P15391). Briefly: cell-based or functional assay.
Chain of CD19 expressed on the surface of KILR Raji cells (P15391 20-556 limits assumed): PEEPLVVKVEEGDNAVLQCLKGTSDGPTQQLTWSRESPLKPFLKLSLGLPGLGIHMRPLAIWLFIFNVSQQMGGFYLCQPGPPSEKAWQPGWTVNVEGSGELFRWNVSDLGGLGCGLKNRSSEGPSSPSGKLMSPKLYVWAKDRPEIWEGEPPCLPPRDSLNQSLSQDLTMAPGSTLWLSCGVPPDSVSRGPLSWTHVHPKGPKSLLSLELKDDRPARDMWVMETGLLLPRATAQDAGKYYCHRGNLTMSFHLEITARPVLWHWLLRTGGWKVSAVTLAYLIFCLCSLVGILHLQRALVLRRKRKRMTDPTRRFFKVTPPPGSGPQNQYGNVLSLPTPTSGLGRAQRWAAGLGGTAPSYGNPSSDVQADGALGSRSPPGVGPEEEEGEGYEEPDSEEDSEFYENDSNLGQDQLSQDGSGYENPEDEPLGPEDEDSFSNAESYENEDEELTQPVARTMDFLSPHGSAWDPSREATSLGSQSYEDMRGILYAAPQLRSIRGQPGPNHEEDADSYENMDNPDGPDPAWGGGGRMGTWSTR

With blinatumomab (bispecific antibody), the EC50 of T cell-redirected killing of KILR Raji cells, +HSA (15 mg/mL) was 10.8 ng/mL; the EC50 of T cell-redirected killing of KILR Raji cells, -HSA worked out at 2.85 ng/mL; the Fold change (EC50 +HSA / EC50 -HSA) of killing of KILR Raji cells is 3.8 fold.
